Biological target: CcpA (Streptococcus pneumoniae D39) (UniProt A0A0H2ZQ65)
Test: EMSA
Details: EMSA: 10 mM Tris-HCl pH 7.4, 1 mM DTT, 1 mM EDTA, 50 mM KCl, 5% glycerol, 50 ug/mL BSA, 0.05% NP-40, 20 min 37 C; footprinting binding 30 min 25 C

Sequence: GCTACAAACTGTTCCAATTTAACTGTGTTTTTCATAATAAAATCTCCTAAAATGTTTTTTCTTGTAAGCTAACTTACAAAAACCATTATACAAAATGGAATTTCGTTTTAGATAAAATTCTCTCAACTGTCATTTTTTTCTCCCAAAGTGTACTTTTTTAAGAAAAAAGCCGGGAAAATTCCCAGCTTTGCTATTATATTGATCCCAGCAGGATTCGAACCTGCGACCGTTCGCTTAGAAGGCGAATGCTCTATC (double strand) [P240 (PcomCDE)]
- binding: binds

From publication PMC10269683
